# B1: AtUGT71 D1: UDP-glycosyl transferase from Arabidopsis thaliana, amino acid sequence SEQ ID NO: 8 (protein, listed as Arabidopsis thaliana)
# chain: MRNVELIFIPTPTVGHLVPFLEFARRLIEQDDRIRITILLMKLQGQSHLDTYVKSIASSQPFVRFIDVPELEEKPTLGSTQSVEAYVYDVIERNIPLVRNIVMDILTSLALDGVKVKGLVVDFFCLPMIDVAKDISLPFYVFLTTNSGFLAMMQYLADRHSRDTSVFVRNSEEMLSIPGFVNPVPANVLPSALFVEDGYDAYVKLAILFTKANGILVNSSFDIEPYSVNHFLQEQNYPSVYAVGPIFDLKAQPHPEQDLTRRDELMKWLDDQPEASVVFLCFGSMARLRGSLVKEIAHGLELCQYRFLWSLRKEEVTKDDLPEGFLDRVDGRGMICGWSPQVEILAHKAVGGFVSHCGWNSIVESLWFGVPIVTWPMYAEQQLNAFLMVKELKLAVELKLDYRVHSDEIVNANEIETAIRYVMDTDNNVVRKRVMDISQMIQRATKNGGSSFAAIEKFIYDVIGIKP
# B2: SrUGT76G1: UDP-glycosyl transferase from Stevia rebaudiana, amino acid sequence SEQ ID NO: 20 (protein, listed as Stevia rebaudiana)
# chain: MENKTETTVRRRRRIILFPVPFQGHINPILQLANVLYSKGFSITIFHTNFNKPKTSNYPHFTFRFILDNDPQDERISNLPTHGPLAGMRIPIINEHGADELRRELELLMLASEEDEEVSCLITDALWYFAQSVADSLNLRRLVLMTSSLFNFHAHVSLPQFDELGYLDPDDKTRLEEQASGFPMLKVKDIKSAYSNWQILKEILGKMIKQTRASSGVIWNSFKELEESELETVIREIPAPSFLIPLPKHLTASSSSLLDHDRTVFQWLDQQPPSSVLYVSFGSTSEVDEKDFLEIARGLVDSKQSFLWVVRPGFVKGSTWVEPLPDGFLGERGRIVKWVPQQEVLAHGAIGAFWTHSGWNSTLESVCEGVPMIFSDFGLDQPLNARYMSDVLKVGVYLENGWERGEIANAIRRVMVDEEGEYIRQNARVLKQKADVSLMKGGSSYESLESLVSYISSL
# B3: At5g49690: UDP-glycosyl transferase from Arabidopsis thaliana, amino acid sequence SEQ ID NO: 18 (protein, listed as Arabidopsis thaliana)
# chain: MVDKREEVMHVAMFPWLAMGHLLPFLRLSKLLAQKGHKISFISTPRNIERLPKLQSNLASSITFVSFPLPPISGLPPSSESSMDVPYNKQQSLKAAFDLLQPPLKEFLRRSSPDWIIYDYASHWLPSIAAELGISKAFFSLFNAATLCFMGPSSSLIEEIRSTPEDFTVVPPWVPFKSNIVFRYHEVTRYVEKTEEDVTGVSDSVRFGYSIDESDAVFVRSCPEFEPEWFGLLKDLYRKPVFPIGFLPPVIEDDDAVDTTWVRIKKWLDKQRLNSVVYVSLGTEASLRHEEVTELALGLEKSETPFFWVLRNEPKIPDGFKTRVKGRGMVHVGWVPQVKILSHESVGGFLTHCGWNSVVEGLGFGKVPIFFPVLNEQGLNTRLLHGKGLGVEVSRDERDGSFDSDSVADSIRLVMIDDAGEEIRAKAKVMKDLFGNMDENIRYVDELVRFMRSKGSSSSS
# Columns and labels:
# [1] = cited from earlier work
# [2] = system: CN3 yeast strain host cells; test: Detection of glycosylated cannabinoids and cannabinoid precursors in yeast cells expressing UDP-glycosyl transferase (HPLC-MS); assay type: cell-based; design: key to CBDA-glc / OLA-glc / CBGA-glc / CBGA-(glc)2 / CBD-glc / CBD-(glc)2 / OLA-(glc)2 / CBGA-glucuronic acid: (+) represents the lowest detected quantities; (++), (+++), and (++++) signify relative increasing intermediate detected levels; (++), (+++), and (++++) signify relative increasing intermediate detected levels; (++), (+++), and (++++) signify relative increasing intermediate detected levels; (+++++) represents the highest detected quantities; No detectable levels of a glycosylated cannabinoid compound or glycosylated cannabinoid precursor compound are indicated by “n.d.”; conditions: for CBD-glc: 0.5 g/L CBD; for production of glycosylated cannabinoids or cannabinoid precursor compounds: pellet or supernatant of recombinant yeast host cells transformed with the UGT
# Procedure, shortened: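 CN3 yeast host cells carrying a heterologous UDP-glycosyl transferase gene were grown overnight in YPD, then diluted into YPG to OD600 = 0.2 and shaken at 600 RPM and 28° C. Cell pellets and supernatants were extracted for 1 hour in 80 % Acetonitrile/20 % Methanol, centrifuged at 12,000 RPM, filtered (0.22 µm), and checked for glycosylated cannabinoids and precursors by HPLC and negative-mode ESI QToF HPLC-MS.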
# [3] = system: bacterial strain BL21 (DE3); test: CBDA depletion in BL21 (DE3) strains expressing UGTs (UHPLC-MS); assay type: cell-based; conditions: 0.1 mM CBDA, induced with 100 µM IPTG for 4h at 37° C. vs controls without induction
# Description: The following cDNAs encoding UGTs from Arabidopsis thaliana, Cannabis sativa and Helianthus annuus UGTs were cloned into pDONOR-zeo (as described in Example 1) and then recombined into the prokaryotic expression vector pDEST14: AtUGT73C6 (SEQ ID NO: 3), AtUGT88A1 (SEQ ID NO: 5), AtUGT71 D1 (SEQ ID NO: 7), AtUGT73B4 (SEQ ID NO: 9), AtUGT76C4 (SEQ ID NO: 11), AtUGT76E12 (SEQ ID NO: 13), and At5g49690 (SEQ ID NO: 17), CsUGT73C6 (SEQ ID NO: 15), HaUGT76G1L (SEQ ID NO: 1), and SrUGT76G1 (SEQ ID NO: 19). Host cells from the bacterial strain BL21 (DE3) were transformed individually pDEST14 vector.
# A BL21 (DE3) single colony was inoculated in liquid media and incubated at 37° C. overnight. The bacterial cultures were diluted to a final 0.6 OD and CBDA was added to a final concentration of 0.1 mM. The cultures were split, and half was induced with 100 µM IPTG for 4h at 37° C. to express the UGTs and the other half was kept as controls without induction of UGT expression.
# Subsequently, samples were treated with a 1:1 volume of acetonitrile for 15 minutes at 250 RPM. After 30 minutes centrifugation at 4,000 RPM, samples were diluted 1000-fold in the same solvent for further analysis.
# CBDA depletion was assayed employing UHPLC-MS analysis. The instrument used was a Thermo Vanquish UHPLC connected to a Thermo TSQ Altis mass spectrometer. The UHPLC consists of a vacuum degasser, a ternary pump, a thermostated autosampler held at 5° C., and a thermostated column compartment. An Accucore C18 (150 × 2.2 mm, 2.6 µm, Thermo, USA) was used. The mobile phase is water with 0.1 % formic acid (A) and acetonitrile with 0.1 % formic acid (B) on a linear gradient (see Table 5). The flow rate was set at 0.800 mL/min. The column temperature was set at 30° C. The sample injection volume was 1 µL.
# MS analyses were carried out in order to ensure the identity of the peaks and were performed on a Thermo TSQ Altis triple quadrupole mass spectrometer using electrospray ionization in negative mode. Compounds were analyzed using selected reaction monitoring using two ion pairs for quantitation and confirmation respectively.
# [4] = 20 h growth, detected in PELLET, 0.05 mM hexanoic acid
molecule,measurement,setting,value
"CCCCCc1cc(O)c2c(c1)OC(C)(C)C1CCC(C)=CC21 (centres unmarked) [Δ^9-THC, Δ^9-tetrahydrocannabinol]",solubility in water,[1],less than 0.01 mg/ml
B1,CBDA-glc,[2]; [4],++
same,CBGA-glc,[2]; [4],+
same,OLA-glc,[2]; [4],++
same,CBD-glc,"[2]; 20 h growth, detected in PELLET",+++
same,OLA-glc,"[2]; 20 h growth, detected in SUPERNATANT, 0.2 mM hexanoic acid",++
same,CBD-glc,"[2]; 20 h growth, detected in SUPERNATANT",+++
same,production of glycosylated cannabinoids or cannabinoid precursor compounds,[2],detected
same,decrease in CBDA content,[3],9%
B2,production of glycosylated cannabinoids or cannabinoid precursor compounds,[2],No production
same,decrease in CBDA content,[3],21%
B3,CBDA-glc,[2]; [4],+
same,production of glycosylated cannabinoids or cannabinoid precursor compounds,[2],detected
same,decrease in CBDA content,[3],9%
